Target: 基因重组表达的CD33胞外区 (recombinant CD33 extracellular domain) (human) (UniProt P20138)
Assay: phage ELISA, CD33-ECD coated, HRP/anti-M13 detection

Chain of UniProt P20138 (P20138 18-259): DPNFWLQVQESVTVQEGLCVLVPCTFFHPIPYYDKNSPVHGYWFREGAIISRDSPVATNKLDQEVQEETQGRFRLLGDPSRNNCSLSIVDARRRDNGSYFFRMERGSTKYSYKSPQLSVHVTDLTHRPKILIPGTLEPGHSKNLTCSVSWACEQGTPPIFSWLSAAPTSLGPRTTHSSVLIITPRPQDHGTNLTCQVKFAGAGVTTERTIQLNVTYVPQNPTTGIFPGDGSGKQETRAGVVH

B1: 噬菌体展示的单链抗体ZJL101 (phage-displayed scFv ZJL101; phage clones No. 3 and No. 4, identical inserts) (scFv, not shown: large carriers)
scFv: MAQVQLVQSGTVVKKPGSSVKVSCKTSGGTLPNHAINWVRQASGQGLEWMGWMSPNTGDTGYARKFQGRVTMTRDTSISTAYMELSSLRSDDTAIYYCATGDPRVGHSWGQGTLVTVSSGGGGSGGGGSGGGGSDIQMTQSPPSLSASVGDRVTITCRASQTIGSHLNWYQQKPGKAPKLLITGASSLQSGVPARFTGSGFGTDFTLTISSLQVEDLATYSCQQTYNTPRTFGQGTKVEIK
Q: For B1, which OD450nm is on record?
A: 1.6 OD450nm
